Measured values as given in PMC12343972 (Nature Communications, 2025).

Tests used:
Rad50-K1181A K1183A = target: T1, Rad50-K1181A K1183A (Saccharomyces cerevisiae, UniProt P12753 1-1312, K1181A;K1183A); experiment: EMSA
T1 sequence: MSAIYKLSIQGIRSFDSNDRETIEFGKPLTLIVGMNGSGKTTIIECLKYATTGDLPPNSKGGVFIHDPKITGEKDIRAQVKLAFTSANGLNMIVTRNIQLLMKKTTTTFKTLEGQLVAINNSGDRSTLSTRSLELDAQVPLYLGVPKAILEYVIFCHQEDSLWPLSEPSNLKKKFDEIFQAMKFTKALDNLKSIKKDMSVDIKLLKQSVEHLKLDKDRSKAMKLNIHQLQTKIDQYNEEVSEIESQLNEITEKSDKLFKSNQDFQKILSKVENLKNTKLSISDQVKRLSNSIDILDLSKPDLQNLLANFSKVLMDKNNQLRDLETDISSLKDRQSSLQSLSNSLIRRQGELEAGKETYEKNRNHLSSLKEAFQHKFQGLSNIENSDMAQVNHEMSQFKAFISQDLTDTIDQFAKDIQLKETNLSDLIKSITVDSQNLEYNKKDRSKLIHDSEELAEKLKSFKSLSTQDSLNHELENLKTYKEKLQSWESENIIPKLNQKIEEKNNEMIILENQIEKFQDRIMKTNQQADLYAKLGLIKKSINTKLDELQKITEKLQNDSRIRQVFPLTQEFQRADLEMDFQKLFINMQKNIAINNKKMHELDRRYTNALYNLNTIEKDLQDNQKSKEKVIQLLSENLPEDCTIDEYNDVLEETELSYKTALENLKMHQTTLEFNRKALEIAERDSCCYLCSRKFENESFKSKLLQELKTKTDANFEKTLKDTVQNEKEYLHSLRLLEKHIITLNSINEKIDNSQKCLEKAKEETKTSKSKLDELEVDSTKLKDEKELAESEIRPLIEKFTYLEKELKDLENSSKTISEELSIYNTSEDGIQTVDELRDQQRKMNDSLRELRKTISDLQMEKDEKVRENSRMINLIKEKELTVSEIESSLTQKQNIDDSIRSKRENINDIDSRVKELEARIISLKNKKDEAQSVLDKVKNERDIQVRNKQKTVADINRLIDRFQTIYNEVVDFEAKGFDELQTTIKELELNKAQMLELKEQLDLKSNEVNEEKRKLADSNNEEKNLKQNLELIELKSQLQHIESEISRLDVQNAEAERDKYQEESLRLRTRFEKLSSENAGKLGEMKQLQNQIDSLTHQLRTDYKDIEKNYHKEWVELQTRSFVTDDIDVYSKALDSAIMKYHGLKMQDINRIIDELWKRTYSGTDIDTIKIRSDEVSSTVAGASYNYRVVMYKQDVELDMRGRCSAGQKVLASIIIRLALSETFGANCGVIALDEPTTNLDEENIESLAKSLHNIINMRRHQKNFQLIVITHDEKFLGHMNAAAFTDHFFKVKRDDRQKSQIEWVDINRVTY

Rad50 WT = target: T2, Rad50 WT (Saccharomyces cerevisiae, UniProt P12753 1-1312); experiment: EMSA
T2 sequence: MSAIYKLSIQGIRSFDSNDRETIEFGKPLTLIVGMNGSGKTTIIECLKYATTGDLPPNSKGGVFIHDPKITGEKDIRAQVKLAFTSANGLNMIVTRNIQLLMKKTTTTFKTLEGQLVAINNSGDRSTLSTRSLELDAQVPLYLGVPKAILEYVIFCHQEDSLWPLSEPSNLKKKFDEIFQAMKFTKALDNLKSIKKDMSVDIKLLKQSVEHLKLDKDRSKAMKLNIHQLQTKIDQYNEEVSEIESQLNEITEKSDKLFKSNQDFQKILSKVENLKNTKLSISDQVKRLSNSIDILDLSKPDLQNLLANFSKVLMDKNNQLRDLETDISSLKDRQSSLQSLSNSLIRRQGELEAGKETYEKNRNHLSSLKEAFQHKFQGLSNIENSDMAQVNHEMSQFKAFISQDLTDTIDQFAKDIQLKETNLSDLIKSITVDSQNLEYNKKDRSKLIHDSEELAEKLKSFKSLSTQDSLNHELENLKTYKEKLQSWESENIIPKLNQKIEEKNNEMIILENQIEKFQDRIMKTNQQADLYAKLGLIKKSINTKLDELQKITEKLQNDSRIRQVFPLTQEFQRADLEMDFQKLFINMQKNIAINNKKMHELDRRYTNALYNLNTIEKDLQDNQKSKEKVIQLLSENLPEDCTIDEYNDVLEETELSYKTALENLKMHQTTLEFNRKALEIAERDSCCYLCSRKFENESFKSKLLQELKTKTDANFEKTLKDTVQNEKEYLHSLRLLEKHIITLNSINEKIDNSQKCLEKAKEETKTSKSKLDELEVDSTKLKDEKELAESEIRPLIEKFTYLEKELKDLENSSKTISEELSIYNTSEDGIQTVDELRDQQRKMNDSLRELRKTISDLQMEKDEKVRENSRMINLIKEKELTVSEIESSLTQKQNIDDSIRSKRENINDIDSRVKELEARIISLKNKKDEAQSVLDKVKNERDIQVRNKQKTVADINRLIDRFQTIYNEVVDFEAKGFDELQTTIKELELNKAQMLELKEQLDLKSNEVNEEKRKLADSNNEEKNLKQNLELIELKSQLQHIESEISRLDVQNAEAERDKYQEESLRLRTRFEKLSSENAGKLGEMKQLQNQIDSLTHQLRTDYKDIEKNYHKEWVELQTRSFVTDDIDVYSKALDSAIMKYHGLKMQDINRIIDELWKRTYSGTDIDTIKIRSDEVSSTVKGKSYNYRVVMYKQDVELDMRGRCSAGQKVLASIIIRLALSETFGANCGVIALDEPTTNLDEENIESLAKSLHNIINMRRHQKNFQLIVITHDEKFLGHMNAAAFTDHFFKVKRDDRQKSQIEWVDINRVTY

B1: 83-mer dsDNA (EMSA) (dsDNA)
DNA 1: TTGATAAGAGGTCATTTTTGCGGATGGCTTAGAGCTTAATTGCTGAATCTGGTGCTGTAGCTCAACATGTTTTAAATATGCAA
DNA 2: TTGCATATTTAAAACATGTTGAGCTACAGCACCAGATTCAGCAATTAAGCTCTAAGCCATCCGCAAAAATGACCTCTTATCAA
binding result (Rad50-K1181A K1183A): binds | binding result (Rad50 WT): binds
